{"source": "patent US20110118131A1", "about": "(published 2011)", "binders": {"B1": {"name": "XPA23 light chain N30I (Fab, V domains shown)", "VH": "EVQLLESGGGLVQPGGSLRLSCAASGFTFSKYFMFWVRQAPGKGLEWVSVISPSGGMTRYADSVKGRFTISRDNSKNTLYLQMNSLRAEDTAVYYCARVGYGGNSDYWGQGTLVTVSS", "VL": "DIQMTQSPSSVSASVGDRLTIICRASQDIIRWLAWYQQTPGNAPKLLIHSATSLQSGVPSRFSGSGSGTDFTLTINSLQPEDFATYYCQQADSFPLTFGGGTKVEIK"}, "B2": {"name": "XPA23 light chain N30K (Fab, V domains shown)", "VH": "B1 VH", "VL": "B1 VL with I30K"}, "B3": {"name": "XPA23 light chain N30L (Fab, V domains shown)", "VH": "B1 VH", "VL": "B1 VL with I30L"}, "B4": {"name": "XPA23 light chain N30P (Fab, V domains shown)", "VH": "B1 VH", "VL": "B1 VL with I30P"}, "B5": {"name": "XPA23 light chain N30Q (Fab, V domains shown)", "VH": "B1 VH", "VL": "B1 VL with I30Q"}, "B6": {"name": "XPA23 light chain N30R (Fab, V domains shown)", "VH": "B1 VH", "VL": "B1 VL with I30R"}, "B7": {"name": "XPA23 light chain N30S (Fab, V domains shown)", "VH": "B1 VH", "VL": "B1 VL with I30S"}, "B8": {"name": "XPA23 light chain N30T (Fab, V domains shown)", "VH": "B1 VH", "VL": "B1 VL with I30T"}, "B9": {"name": "XPA23 light chain N30V (Fab, V domains shown)", "VH": "B1 VH", "VL": "B1 VL with I30V"}, "B10": {"name": "XPA23 light chain N30W (Fab, V domains shown)", "VH": "B1 VH", "VL": "B1 VL with I30W"}, "B11": {"name": "XPA23 light chain N30Y (Fab, V domains shown)", "VH": "B1 VH", "VL": "B1 VL with I30Y"}, "B12": {"name": "XPA23 light chain P95D (Fab, V domains shown)", "VH": "B1 VH", "VL": "B1 VL with I30N, P95D"}, "B13": {"name": "XPA23 light chain P95E (Fab, V domains shown)", "VH": "B1 VH", "VL": "B1 VL with I30N, P95E"}, "B14": {"name": "XPA23 light chain P95F (Fab, V domains shown)", "VH": "B1 VH", "VL": "B1 VL with I30N, P95F"}, "B15": {"name": "XPA23 light chain P95H (Fab, V domains shown)", "VH": "B1 VH", "VL": "B1 VL with I30N, P95H"}, "B16": {"name": "XPA23 light chain P95K (Fab, V domains shown)", "VH": "B1 VH", "VL": "B1 VL with I30N, P95K"}, "B17": {"name": "XPA23 light chain P95N (Fab, V domains shown)", "VH": "B1 VH", "VL": "B1 VL with I30N, P95N"}, "B18": {"name": "XPA23 light chain P95Q (Fab, V domains shown)", "VH": "B1 VH", "VL": "B1 VL with I30N, P95Q"}, "B19": {"name": "XPA23 light chain P95R (Fab, V domains shown)", "VH": "B1 VH", "VL": "B1 VL with I30N, P95R"}, "B20": {"name": "XPA23 light chain P95S (Fab, V domains shown)", "VH": "B1 VH", "VL": "B1 VL with I30N, P95S"}, "B21": {"name": "XPA23 light chain P95W (Fab, V domains shown)", "VH": "B1 VH", "VL": "B1 VL with I30N, P95W"}, "B22": {"name": "XPA23 light chain P95Y (Fab, V domains shown)", "VH": "B1 VH", "VL": "B1 VL with I30N, P95Y"}, "B23": {"name": "XPA23 light chain Q27A (Fab, V domains shown)", "VH": "B1 VH", "VL": "B1 VL with Q27A, I30N"}, "B24": {"name": "XPA23 light chain Q27D (Fab, V domains shown)", "VH": "B1 VH", "VL": "B1 VL with Q27D, I30N"}, "B25": {"name": "XPA23 light chain Q27E (Fab, V domains shown)", "VH": "B1 VH", "VL": "B1 VL with Q27E, I30N"}, "B26": {"name": "XPA23 light chain Q27F (Fab, V domains shown)", "VH": "B1 VH", "VL": "B1 VL with Q27F, I30N"}, "B27": {"name": "XPA23 light chain Q27G (Fab, V domains shown)", "VH": "B1 VH", "VL": "B1 VL with Q27G, I30N"}, "B28": {"name": "XPA23 light chain Q27H (Fab, V domains shown)", "VH": "B1 VH", "VL": "B1 VL with Q27H, I30N"}, "B29": {"name": "XPA23 light chain Q27I (Fab, V domains shown)", "VH": "B1 VH", "VL": "B1 VL with Q27I, I30N"}, "B30": {"name": "XPA23 light chain Q27K (Fab, V domains shown)", "VH": "B1 VH", "VL": "B1 VL with Q27K, I30N"}, "B31": {"name": "XPA23 light chain Q27L (Fab, V domains shown)", "VH": "B1 VH", "VL": "B1 VL with Q27L, I30N"}, "B32": {"name": "XPA23 light chain Q27N (Fab, V domains shown)", "VH": "B1 VH", "VL": "B1 VL with Q27N, I30N"}, "B33": {"name": "XPA23 light chain Q27P (Fab, V domains shown)", "VH": "B1 VH", "VL": "B1 VL with Q27P, I30N"}, "B34": {"name": "XPA23 light chain Q27R (Fab, V domains shown)", "VH": "B1 VH", "VL": "B1 VL with Q27R, I30N"}, "B35": {"name": "XPA23 light chain Q27S (Fab, V domains shown)", "VH": "B1 VH", "VL": "B1 VL with Q27S, I30N"}, "B36": {"name": "XPA23 light chain Q27T (Fab, V domains shown)", "VH": "B1 VH", "VL": "B1 VL with Q27T, I30N"}, "B37": {"name": "XPA23 light chain Q27V (Fab, V domains shown)", "VH": "B1 VH", "VL": "B1 VL with Q27V, I30N"}, "B38": {"name": "XPA23 light chain Q27W (Fab, V domains shown)", "VH": "B1 VH", "VL": "B1 VL with Q27W, I30N"}, "B39": {"name": "XPA23 light chain R31A (Fab, V domains shown)", "VH": "B1 VH", "VL": "B1 VL with I30N, R31A"}, "B40": {"name": "XPA23 light chain R31D (Fab, V domains shown)", "VH": "B1 VH", "VL": "B1 VL with I30N, R31D"}, "B41": {"name": "XPA23 light chain R31E (Fab, V domains shown)", "VH": "B1 VH", "VL": "B1 VL with I30N, R31E"}, "B42": {"name": "XPA23 light chain R31F (Fab, V domains shown)", "VH": "B1 VH", "VL": "B1 VL with I30N, R31F"}, "B43": {"name": "XPA23 light chain R31G (Fab, V domains shown)", "VH": "B1 VH", "VL": "B1 VL with I30N, R31G"}, "B44": {"name": "XPA23 light chain R31H (Fab, V domains shown)", "VH": "B1 VH", "VL": "B1 VL with I30N, R31H"}, "B45": {"name": "XPA23 light chain R31I (Fab, V domains shown)", "VH": "B1 VH", "VL": "B1 VL with I30N, R31I"}}, "target": "T1, IL-1β (UniProt P01584 117-269)", "T1 construct": "Antigen immobilised on the Biacore chip", "experiment": "Biacore, periplasmic extract", "note": "Changes are numbered by the printed parent chain. Names may count otherwise."}
{"binder": "B1", "values": [{"measurement": "fold difference in affinity vs original", "value": 0.65, "unit": "fold"}]}
{"binder": "B2", "values": [{"measurement": "fold difference in affinity vs original", "value": 0.61, "unit": "fold"}]}
{"binder": "B3", "values": [{"measurement": "fold difference in affinity vs original", "value": 0.68, "unit": "fold"}]}
{"binder": "B4", "values": [{"measurement": "fold difference in affinity vs original", "value": 0.69, "unit": "fold"}]}
{"binder": "B5", "values": [{"measurement": "fold difference in affinity vs original", "value": 0.6, "unit": "fold"}]}
{"binder": "B6", "values": [{"measurement": "fold difference in affinity vs original", "value": 0.74, "unit": "fold"}]}
{"binder": "B7", "values": [{"measurement": "fold difference in affinity vs original", "value": 0.72, "unit": "fold"}]}
{"binder": "B8", "values": [{"measurement": "fold difference in affinity vs original", "value": 0.97, "unit": "fold"}]}
{"binder": "B9", "values": [{"measurement": "fold difference in affinity vs original", "value": 0.89, "unit": "fold"}]}
{"binder": "B10", "values": [{"measurement": "fold difference in affinity vs original", "value": 1.06, "unit": "fold"}]}
{"binder": "B11", "values": [{"measurement": "fold difference in affinity vs original", "value": 1.4, "unit": "fold"}]}
{"binder": "B12", "values": [{"measurement": "fold difference in affinity vs original", "value": 1.32, "unit": "fold"}]}
{"binder": "B13", "values": [{"measurement": "fold difference in affinity vs original", "value": 0.88, "unit": "fold"}]}
{"binder": "B14", "values": [{"measurement": "fold difference in affinity vs original", "value": 0.98, "unit": "fold"}]}
{"binder": "B15", "values": [{"measurement": "binding result", "value": "no binding"}]}
{"binder": "B16", "values": [{"measurement": "binding result", "value": "no binding"}]}
{"binder": "B17", "values": [{"measurement": "binding result", "value": "no binding"}]}
{"binder": "B18", "values": [{"measurement": "binding result", "value": "no binding"}]}
{"binder": "B19", "values": [{"measurement": "binding result", "value": "no binding"}]}
{"binder": "B20", "values": [{"measurement": "fold difference in affinity vs original", "value": 4.05, "unit": "fold"}]}
{"binder": "B21", "values": [{"measurement": "binding result", "value": "no binding"}]}
{"binder": "B22", "values": [{"measurement": "binding result", "value": "no binding"}]}
{"binder": "B23", "values": [{"measurement": "fold difference in affinity vs original", "value": 1.47, "unit": "fold"}]}
{"binder": "B24", "values": [{"measurement": "fold difference in affinity vs original", "value": 1.07, "unit": "fold"}]}
{"binder": "B25", "values": [{"measurement": "fold difference in affinity vs original", "value": 1.08, "unit": "fold"}]}
{"binder": "B26", "values": [{"measurement": "fold difference in affinity vs original", "value": 2.96, "unit": "fold"}]}
{"binder": "B27", "values": [{"measurement": "binding result", "value": "no binding"}]}
{"binder": "B28", "values": [{"measurement": "fold difference in affinity vs original", "value": 1.09, "unit": "fold"}]}
{"binder": "B29", "values": [{"measurement": "fold difference in affinity vs original", "value": 0.82, "unit": "fold"}]}
{"binder": "B30", "values": [{"measurement": "binding result", "value": "no binding"}]}
{"binder": "B31", "values": [{"measurement": "fold difference in affinity vs original", "value": 0.83, "unit": "fold"}]}
{"binder": "B32", "values": [{"measurement": "binding result", "value": "no binding"}]}
{"binder": "B33", "values": [{"measurement": "binding result", "value": "no binding"}]}
{"binder": "B34", "values": [{"measurement": "fold difference in affinity vs original", "value": 0.89, "unit": "fold"}]}
{"binder": "B35", "values": [{"measurement": "fold difference in affinity vs original", "value": 3.3, "unit": "fold"}]}
{"binder": "B36", "values": [{"measurement": "fold difference in affinity vs original", "value": 0.64, "unit": "fold"}]}
{"binder": "B37", "values": [{"measurement": "binding result", "value": "no binding"}]}
{"binder": "B38", "values": [{"measurement": "binding result", "value": "no binding"}]}
{"binder": "B39", "values": [{"measurement": "fold difference in affinity vs original", "value": 8.48, "unit": "fold"}]}
{"binder": "B40", "values": [{"measurement": "fold difference in affinity vs original", "value": 11.1, "unit": "fold"}]}
{"binder": "B41", "values": [{"measurement": "binding result", "value": "no binding"}]}
{"binder": "B42", "values": [{"measurement": "fold difference in affinity vs original", "value": 0.92, "unit": "fold"}]}
{"binder": "B43", "values": [{"measurement": "fold difference in affinity vs original", "value": 0.92, "unit": "fold"}]}
{"binder": "B44", "values": [{"measurement": "binding result", "value": "no binding"}]}
{"binder": "B45", "values": [{"measurement": "fold difference in affinity vs original", "value": 0.68, "unit": "fold"}]}
